Reference: paper PMC6773797, “Identification and molecular characterization of a psychrophilic GH1 β-glucosidase from the subtropical soil microorganism Exiguobacterium sp. GXG2” (AMB Express, 2019)

Substrate: O=[N+]([O-])c1ccc(O[C@@H]2O[C@H](CO)[C@@H](O)[C@H](O)[C@H]2O)cc1
Assay: purified protein
Format: biochemical, Exiguobacterium sp. GXG2
Conditions: pH 7.0, 35 °C, 1–10 mM substrate

B1: BglG (Exiguobacterium sp. GXG2) (protein)
chain: MKMPKDFLFGAASASYQVEGAWNVDGKGVSNWDVFSKIPGKTFEATNGDVAIDHYHRYKEDIGLMAEMGLESYRFSISWPRIFPNGTGEVNEKGLEFYNNVIDECLKHGIVPFVTLYHWDLPQVLEEQGGWRSPETADAFVRFAKTCFEAFGDRVRNWITFNETVIFCSLGYLTGAHPPGITGDAKAYFQTTHNVFVAHARAVEAFKEAGYEGEIGITHVFNPAFSIDEAPENKQAEVHANEYATHWFYDPILKGEYPAYVVKDLEKQGLLPEWTEEELDLLKRTAPLNDFIGLNYYCPQRVMKNDSALVMAGGRENSTGRPGNPSFDGVYKTVLMDDKVYTKWGWEIAPDAFLEGMRMLQARYGDIKIYITENGLGDEDPIVGEEIMDTPRIEYIESHLRAVKRAVEEGINVSGYYAWSVIDLLSWLNGYKKQYGFIYVDHANGLARKKKQSFHWYQEIIATRAAEL
notes: six-histidine tag kept, about 58 kDa on SDS-PAGE; pETBlue-2, E. coli Tuner(DE3)pLacI; Ni-NTA purified
Km: 1100 µM | kcat: 12.7 s⁻¹
